± gives the uncertainty stated by the source.
B1: Histone H1t, residues 44 to 112; numbered along this chain, P22492 (parent)
chain: VSKLITEALSVSQERVGMSLVALKKALAAAGYDVEKNNSRIKLSLKSLVNKGILVQTRGTGASGSFKLS

Variants of: B1
Experiment: abundance fitness (aPCA) (normalised: wild type 0, dead -1); higher = more abundant; growth selection in yeast, the domain comes from the species named
Settings: Homo sapiens
With VSKLITEALSVSQERVGMSLVALKKALAAAGYDVPKNNSRIKLSLKSLVNKGILVQTRGTGASGSFKLS [E35P] the abundance fitness was -0.31 ± 0.034. For VSKLITEALSVSQERVGMSLVALKKALAAAGYDVSKNNSRIKLSLKSLVNKGILVQTRGTGASGSFKLS [E35S], the abundance fitness was -0.134 ± 0.032. VSKLITEALSVSQERVGMSLVALKKALAAAGYDVHKNNSRIKLSLKSLVNKGILVQTRGTGASGSFKLS [E35H] showed an abundance fitness of -0.137 ± 0.06. With VSKLITEALSVSQERVGMSLVALKKALAAAGYDVNKNNSRIKLSLKSLVNKGILVQTRGTGASGSFKLS [E35N] the abundance fitness was -0.064 ± 0.092. Work on VSKLITEALSVSQERVGMSLVALKKALAAAGYDVKKNNSRIKLSLKSLVNKGILVQTRGTGASGSFKLS [E35K] yielded an abundance fitness of 0.05 ± 0.053. VSKLITEALSVSQERVGMSLVALKKALAAAGYDVQKNNSRIKLSLKSLVNKGILVQTRGTGASGSFKLS [E35Q] showed an abundance fitness of -0.084 ± 0.04. VSKLITEALSVSQERVGMSLVALKKALAAAGYDVFKNNSRIKLSLKSLVNKGILVQTRGTGASGSFKLS [E35F] gave an abundance fitness of -0.307 ± 0.047. Variant VSKLITEALSVSQERVGMSLVALKKALAAAGYDVIKNNSRIKLSLKSLVNKGILVQTRGTGASGSFKLS [E35I] has an abundance fitness of -0.123 ± 0.059. VSKLITEALSVSQERVGMSLVALKKALAAAGYDVMKNNSRIKLSLKSLVNKGILVQTRGTGASGSFKLS [E35M] gave an abundance fitness of -0.157 ± 0.038. With VSKLITEALSVSQERVGMSLVALKKALAAAGYDVTKNNSRIKLSLKSLVNKGILVQTRGTGASGSFKLS [E35T] the abundance fitness was -0.061 ± 0.038. For VSKLITEALSVSQERVGMSLVALKKALAAAGYDVYKNNSRIKLSLKSLVNKGILVQTRGTGASGSFKLS [E35Y], the abundance fitness was -0.036 ± 0.065. With VSKLITEALSVSQERVGMSLVALKKALAAAGYDVEENNSRIKLSLKSLVNKGILVQTRGTGASGSFKLS [K36E] the abundance fitness was -0.428 ± 0.069. VSKLITEALSVSQERVGMSLVALKKALAAAGYDVECNNSRIKLSLKSLVNKGILVQTRGTGASGSFKLS [K36C] gave an abundance fitness of -0.556 ± 0.07. VSKLITEALSVSQERVGMSLVALKKALAAAGYDVELNNSRIKLSLKSLVNKGILVQTRGTGASGSFKLS [K36L] gave an abundance fitness of -0.358 ± 0.04. Work on VSKLITEALSVSQERVGMSLVALKKALAAAGYDVEGNNSRIKLSLKSLVNKGILVQTRGTGASGSFKLS [K36G] yielded an abundance fitness of -0.251 ± 0.047. VSKLITEALSVSQERVGMSLVALKKALAAAGYDVEHNNSRIKLSLKSLVNKGILVQTRGTGASGSFKLS [K36H] gave an abundance fitness of -0.432 ± 0.073. For VSKLITEALSVSQERVGMSLVALKKALAAAGYDVEDNNSRIKLSLKSLVNKGILVQTRGTGASGSFKLS [K36D], the abundance fitness was -0.387 ± 0.15. Variant VSKLITEALSVSQERVGMSLVALKKALAAAGYDVEMNNSRIKLSLKSLVNKGILVQTRGTGASGSFKLS [K36M] has an abundance fitness of -0.285 ± 0.064. VSKLITEALSVSQERVGMSLVALKKALAAAGYDVEINNSRIKLSLKSLVNKGILVQTRGTGASGSFKLS [K36I] gave an abundance fitness of -0.628 ± 0.13. VSKLITEALSVSQERVGMSLVALKKALAAAGYDVEANNSRIKLSLKSLVNKGILVQTRGTGASGSFKLS [K36A] showed an abundance fitness of -0.106 ± 0.047. VSKLITEALSVSQERVGMSLVALKKALAAAGSDVEKNNSRIKLSLKSLVNKGILVQTRGTGASGSFKLS [Y32S] gave an abundance fitness of -0.14 ± 0.031. VSKLITEALSVSQERVGMSLVALKKALAAAGLDVEKNNSRIKLSLKSLVNKGILVQTRGTGASGSFKLS [Y32L] gave an abundance fitness of 0.032 ± 0.028. VSKLITEALSVSQERVGMSLVALKKALAAAGCDVEKNNSRIKLSLKSLVNKGILVQTRGTGASGSFKLS [Y32C] gave an abundance fitness of -0.391 ± 0.089. Variant VSKLITEALSVSQERVGMSLVALKKALAAAGTDVEKNNSRIKLSLKSLVNKGILVQTRGTGASGSFKLS [Y32T] has an abundance fitness of -0.193 ± 0.036. Variant VSKLITEALSVSQERVGMSLVALKKALAAAGNDVEKNNSRIKLSLKSLVNKGILVQTRGTGASGSFKLS [Y32N] has an abundance fitness of -0.114 ± 0.072. VSKLITEALSVSQERVGMSLVALKKALAAAGWDVEKNNSRIKLSLKSLVNKGILVQTRGTGASGSFKLS [Y32W] gave an abundance fitness of -0.116 ± 0.061. In the case of VSKLITEALSVSQERVGMSLVALKKALAAAGHDVEKNNSRIKLSLKSLVNKGILVQTRGTGASGSFKLS [Y32H], the abundance fitness is reported as -0.052 ± 0.063. In the case of VSKLITEALSVSQERVGMSLVALKKALAAAGIDVEKNNSRIKLSLKSLVNKGILVQTRGTGASGSFKLS [Y32I], the abundance fitness is reported as 0.022 ± 0.049. Variant VSKLITEALSVSQERVGMSLVALKKALAAAGKDVEKNNSRIKLSLKSLVNKGILVQTRGTGASGSFKLS [Y32K] has an abundance fitness of 0.064 ± 0.054. Variant VSKLITEALSVSQERVGMSLVALKKALAAAGFDVEKNNSRIKLSLKSLVNKGILVQTRGTGASGSFKLS [Y32F] has an abundance fitness of -0.072 ± 0.041. For VSKLITEALSVSQERVGMSLVALKKALAAAGRDVEKNNSRIKLSLKSLVNKGILVQTRGTGASGSFKLS [Y32R], the abundance fitness was -0.055 ± 0.055. In the case of VSKLITEALSVSQERVGMSLVALKKALAAAGQDVEKNNSRIKLSLKSLVNKGILVQTRGTGASGSFKLS [Y32Q], the abundance fitness is reported as -0.121 ± 0.048. Work on VSKLITEALSVSQERVGMSLVALKKALAAAGPDVEKNNSRIKLSLKSLVNKGILVQTRGTGASGSFKLS [Y32P] yielded an abundance fitness of -0.228 ± 0.034. With VSKLITEALSVSQERVGMSLVALKKALAAAPYDVEKNNSRIKLSLKSLVNKGILVQTRGTGASGSFKLS [G31P] the abundance fitness was -0.434 ± 0.048. For VSKLITEALSVSQERVGMSLVALKKALAAARYDVEKNNSRIKLSLKSLVNKGILVQTRGTGASGSFKLS [G31R], the abundance fitness was -0.306 ± 0.12. Work on VSKLITEALSVSQERVGMSLVALKKALAAAWYDVEKNNSRIKLSLKSLVNKGILVQTRGTGASGSFKLS [G31W] yielded an abundance fitness of -0.387 ± 0.2. Work on VSKLITEALSVSQERVGMSLVALKKALAAATYDVEKNNSRIKLSLKSLVNKGILVQTRGTGASGSFKLS [G31T] yielded an abundance fitness of -0.259 ± 0.042. For VSKLITEALSVSQERVGMSLVALKKALAAALYDVEKNNSRIKLSLKSLVNKGILVQTRGTGASGSFKLS [G31L], the abundance fitness was -0.297 ± 0.031. VSKLITEALSVSQERVGMSLVALKKALAAANYDVEKNNSRIKLSLKSLVNKGILVQTRGTGASGSFKLS [G31N] gave an abundance fitness of -0.357 ± 0.054.
